Test results from patent publication US20260275311, “CRISPR NUCLEASE POLYPEPTIDES AND GENE EDITING SYSTEMS COMPRISING SUCH” (ARBOR BIOTECHNOLOGIES, INC., published 2026).

T1: Nuclease K D582R (D582R)
T1 chain: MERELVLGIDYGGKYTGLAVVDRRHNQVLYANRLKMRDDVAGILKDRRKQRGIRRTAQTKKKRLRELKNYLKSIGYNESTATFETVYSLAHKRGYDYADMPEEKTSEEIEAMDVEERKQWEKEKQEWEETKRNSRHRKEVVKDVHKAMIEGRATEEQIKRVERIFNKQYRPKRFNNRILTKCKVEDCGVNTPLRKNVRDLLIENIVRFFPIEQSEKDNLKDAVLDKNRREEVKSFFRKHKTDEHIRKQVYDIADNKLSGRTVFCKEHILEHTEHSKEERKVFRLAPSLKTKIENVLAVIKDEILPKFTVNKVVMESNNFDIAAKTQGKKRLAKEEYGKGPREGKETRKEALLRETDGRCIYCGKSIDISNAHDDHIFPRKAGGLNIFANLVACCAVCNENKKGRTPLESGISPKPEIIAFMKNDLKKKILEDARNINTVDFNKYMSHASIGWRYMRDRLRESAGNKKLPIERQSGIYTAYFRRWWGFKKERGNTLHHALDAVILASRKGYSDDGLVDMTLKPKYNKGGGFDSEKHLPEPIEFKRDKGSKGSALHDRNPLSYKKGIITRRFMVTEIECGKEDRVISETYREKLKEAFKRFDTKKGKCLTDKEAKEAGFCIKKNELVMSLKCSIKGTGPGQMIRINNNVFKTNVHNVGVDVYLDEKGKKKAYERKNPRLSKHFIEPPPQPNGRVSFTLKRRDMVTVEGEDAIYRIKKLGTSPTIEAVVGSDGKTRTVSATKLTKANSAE

T2: Nuclease K D46R (D46R)
T2 chain: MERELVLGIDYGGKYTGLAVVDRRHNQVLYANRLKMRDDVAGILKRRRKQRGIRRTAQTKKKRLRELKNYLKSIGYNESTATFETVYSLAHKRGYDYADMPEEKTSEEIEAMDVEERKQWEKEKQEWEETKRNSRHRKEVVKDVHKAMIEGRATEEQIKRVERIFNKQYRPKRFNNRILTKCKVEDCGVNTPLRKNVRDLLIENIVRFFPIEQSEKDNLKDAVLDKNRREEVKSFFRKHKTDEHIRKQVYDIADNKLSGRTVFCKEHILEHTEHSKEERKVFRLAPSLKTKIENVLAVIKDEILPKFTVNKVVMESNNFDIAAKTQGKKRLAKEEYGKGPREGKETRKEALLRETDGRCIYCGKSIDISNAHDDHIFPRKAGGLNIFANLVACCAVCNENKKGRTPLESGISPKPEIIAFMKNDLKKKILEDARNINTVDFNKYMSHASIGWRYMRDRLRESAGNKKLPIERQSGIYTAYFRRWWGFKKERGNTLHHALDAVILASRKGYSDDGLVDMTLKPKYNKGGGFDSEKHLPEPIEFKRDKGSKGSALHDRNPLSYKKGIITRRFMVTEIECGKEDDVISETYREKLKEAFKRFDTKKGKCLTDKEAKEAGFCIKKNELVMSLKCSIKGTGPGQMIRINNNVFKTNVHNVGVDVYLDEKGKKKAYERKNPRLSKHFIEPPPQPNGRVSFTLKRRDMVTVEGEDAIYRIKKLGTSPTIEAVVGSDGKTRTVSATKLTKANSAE

T3: Nuclease K G42R (G42R)
T3 chain: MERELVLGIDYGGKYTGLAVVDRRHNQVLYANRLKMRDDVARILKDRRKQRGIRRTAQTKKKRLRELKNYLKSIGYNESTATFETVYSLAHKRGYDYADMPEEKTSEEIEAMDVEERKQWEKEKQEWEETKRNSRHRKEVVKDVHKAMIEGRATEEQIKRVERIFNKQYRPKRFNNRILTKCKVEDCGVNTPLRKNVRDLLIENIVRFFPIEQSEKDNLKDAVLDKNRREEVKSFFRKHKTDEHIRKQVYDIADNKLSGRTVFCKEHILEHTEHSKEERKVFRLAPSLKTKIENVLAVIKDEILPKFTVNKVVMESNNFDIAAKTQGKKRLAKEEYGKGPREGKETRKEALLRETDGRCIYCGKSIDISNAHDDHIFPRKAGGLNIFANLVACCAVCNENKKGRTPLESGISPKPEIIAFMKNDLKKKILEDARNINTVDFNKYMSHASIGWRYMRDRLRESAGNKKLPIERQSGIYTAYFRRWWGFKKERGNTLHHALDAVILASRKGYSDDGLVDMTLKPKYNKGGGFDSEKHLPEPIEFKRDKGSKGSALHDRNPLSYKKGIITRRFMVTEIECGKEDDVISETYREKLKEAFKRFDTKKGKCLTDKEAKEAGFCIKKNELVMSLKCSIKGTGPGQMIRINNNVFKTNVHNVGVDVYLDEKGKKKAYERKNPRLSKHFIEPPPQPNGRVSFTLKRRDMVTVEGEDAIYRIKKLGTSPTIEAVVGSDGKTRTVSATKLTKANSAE


How the values were obtained:
Experiment in all cases: cell_activity; PAM NGG; HEK293T
Details in all cases: tags: N- and C-terminal NLS
[1] = molecular target: T1, Nuclease K D582R
[2] = molecular target: T2, Nuclease K D46R
[3] = molecular target: T3, Nuclease K G42R

Row | Binder | binding signal [1] [fold vs Nuclease K] | binding signal [2] [fold vs Nuclease K] | binding signal [3] [fold vs Nuclease K]
1 | Nuclease K EMX1-T7 guide ; EMX1-T7 target (ssRNA ; dsDNA) RNA: CUUUAGCAAGGGACUAUUCAGUUACAGUUAAGGCUCUGAAAAGAGCCUUAAUUGUAAAACGCCUAUACAGUGAAGGGAUAUACGCUUGGGUUUGUCCAGCCUGAGCCUCUAUGCCAGAAAUGGCGCCUUCAUCGUGGGUUAGGACAUUUAAAUUUAAAAACUAUUCAGCACUGUUUGCUCUUGUCAGCUUGGUGGCAGA DNA 1: CTTTAGCAAGGGACTATTCA DNA 2: TGAATAGTCCCTTGCTAAAG | 31.8 | 9.86 | 5.3
2 | Nuclease K AAVS1-T3 guide ; AAVS1-T3 target (ssRNA ; dsDNA) RNA: UUGUGAGAAUGGUGCGUCCUGUUACAGUUAAGGCUCUGAAAAGAGCCUUAAUUGUAAAACGCCUAUACAGUGAAGGGAUAUACGCUUGGGUUUGUCCAGCCUGAGCCUCUAUGCCAGAAAUGGCGCCUUCAUCGUGGGUUAGGACAUUUAAAUUUAAAAACUAUUCAGCACUGUUUGCUCUUGUCAGCUUGGUGGCAGA DNA 1: TTGTGAGAATGGTGCGTCCT DNA 2: AGGACGCACCATTCTCACAA | 3.68 | 6.71 | 3.94
